Measured values published in paper PMC5343618, “Multimer recognition and secretion by the non-classical secretion pathway in Bacillus subtilis” (Scientific Reports, 2017).

B1: arginase (RocF) (enzyme, B. subtilis 168, UniProt P39138 1-296, looked up)
chain: MDKTISVIGMPMDLGQARRGVDMGPSAIRYAHLIERLSDMGYTVEDLGDIPINREKIKNDEELKNLNSVLAGNEKLAQKVNKVIEEKKFPLVLGGDHSIAIGTLAGTAKHYDNLGVIWYDAHGDLNTLETSPSGNIHGMPLAVSLGIGHESLVNLEGYAPKIKPENVVIIGARSLDEGERKYIKESGMKVYTMHEIDRLGMTKVIEETLDYLSACDGVHLSLDLDGLDPNDAPGVGTPVVGGISYRESHLAMEMLYDAGIITSAEFVEVNPILDHKNKTGKTAVELVESLLGKKLL
notes: arginase (RocF), B. subtilis; gene amplified from B. subtilis 168 chromosomal DNA; source: B. subtilis 1A751, overexpressed from a pMAR-derived plasmid; cytoplasmic fraction and culture supernatant, not purified
B2: glyceraldehyde 3-phosphate dehydrogenase (GapA) (enzyme, B. subtilis 168, UniProt P09124 1-335, looked up)
chain: MAVKVGINGFGRIGRNVFRAALNNPEVEVVAVNDLTDANMLAHLLQYDSVHGKLDAEVSVDGNNLVVNGKTIEVSAERDPAKLSWGKQGVEIVVESTGFFTKRADAAKHLEAGAKKVIISAPANEEDITIVMGVNEDKYDAANHDVISNASCTTNCLAPFAKVLNDKFGIKRGMMTTVHSYTNDQQILDLPHKDYRRARAAAENIIPTSTGAAKAVSLVLPELKGKLNGGAMRVPTPNVSLVDLVAELNQEVTAEEVNAALKEAAEGDLKGILGYSEEPLVSGDYNGNKNSSTIDALSTMVMEGSMVKVISWYDNESGYSNRVVDLAAYIAKKGL
notes: glyceraldehyde 3-phosphate dehydrogenase (GapA), B. subtilis; gene amplified from B. subtilis 168 chromosomal DNA; source: B. subtilis 1A751, overexpressed from a pMAR-derived plasmid; cytoplasmic fraction and culture supernatant, not purified
B3: vegetative catalase (KatA) (enzyme, B. subtilis 168, UniProt P26901 1-483, looked up)
chain: MSSNKLTTSWGAPVGDNQNSMTAGSRGPTLIQDVHLLEKLAHFNRERVPERVVHAKGAGAHGYFEVTNDVTKYTKAAFLSEVGKRTPLFIRFSTVAGELGSADTVRDPRGFAVKFYTEEGNYDIVGNNTPVFFIRDAIKFPDFIHTQKRDPKTHLKNPTAVWDFWSLSPESLHQVTILMSDRGIPATLRHMHGFGSHTFKWTNAEGEGVWIKYHFKTEQGVKNLDVNTAAKIAGENPDYHTEDLFNAIENGDYPAWKLYVQIMPLEDANTYRFDPFDVTKVWSQKDYPLIEVGRMVLDRNPENYFAEVEQATFSPGTLVPGIDVSPDKMLQGRLFAYHDAHRYRVGANHQALPINRARNKVNNYQRDGQMRFDDNGGGSVYYEPNSFGGPKESPEDKQAAYPVQGIADSVSYDHYDHYTQAGDLYRLMSEDERTRLVENIVNAMKPVEKEEIKLRQIEHFYKADPEYGKRVAEGLGLPIKKDS
notes: vegetative catalase (KatA), B. subtilis; gene amplified from B. subtilis 168 chromosomal DNA; source: B. subtilis 1A751, overexpressed from a pMAR-derived plasmid; cytoplasmic fraction and culture supernatant, not purified
B4: transaldolase (YwjH) (enzyme, B. subtilis 168, UniProt P19669 1-212, looked up)
chain: MLFFVDTANIDEIREANELGILAGVTTNPSLVAKEANVSFHDRLREITDVVKGSVSAEVISLKAEEMIEEGKELAKIAPNITVKIPMTSDGLKAVRALTDLGIKTNVTLIFNANQALLAARAGATYVSPFLGRLDDIGHNGLDLISEVKQIFDIHGLDTQIIAASIRHPQHVTEAALRGAHIGTMPLKVIHALTKHPLTDKGIEQFLADWNK
notes: transaldolase (YwjH), B. subtilis; gene amplified from B. subtilis 168 chromosomal DNA; source: B. subtilis 1A751, overexpressed from a pMAR-derived plasmid; cytoplasmic fraction and culture supernatant, not purified
B5: molecular chaperone (GroEL) (natural protein, B. subtilis 168, UniProt P28598 1-544, looked up)
chain: MAKEIKFSEEARRAMLRGVDALADAVKVTLGPKGRNVVLEKKFGSPLITNDGVTIAKEIELEDAFENMGAKLVAEVASKTNDVAGDGTTTATVLAQAMIREGLKNVTAGANPVGVRKGMEQAVAVAIENLKEISKPIEGKESIAQVAAISAADEEVGSLIAEAMERVGNDGVITIEESKGFTTELEVVEGMQFDRGYASPYMVTDSDKMEAVLDNPYILITDKKITNIQEILPVLEQVVQQGKPLLLIAEDVEGEALATLVVNKLRGTFNAVAVKAPGFGDRRKAMLEDIAVLTGGEVITEDLGLDLKSTQIAQLGRASKVVVTKENTTIVEGAGETDKISARVTQIRAQVEETTSEFDREKLQERLAKLAGGVAVIKVGAATETELKERKLRIEDALNSTRAAVEEGIVSGGGTALVNVYNKVAAVEAEGDAQTGINIVLRALEEPIRQIAHNAGLEGSVIVERLKNEEIGVGFNAATGEWVNMIEKGIVDPTKVTRSALQNAASVAAMFLTTEAVVADKPEENGGGAGMPDMGGMGGMGGMM
notes: molecular chaperone GroEL, B. subtilis; gene amplified from B. subtilis 168 chromosomal DNA; source: B. subtilis 1A751, overexpressed from a pMAR-derived plasmid; cytoplasmic fraction and culture supernatant, not purified
B6: fructose 1,6-bisphosphate aldolase (FbaA) (enzyme, B. subtilis 168, UniProt P13243 1-285, looked up)
chain: MPLVSMTEMLNTAKEKGYAVGQFNLNNLEFTQAILQAAEEEKSPVILGVSEGAGRYMGGFKTVVAMVKALMEEYKVTVPVAIHLDHGSSFESCAKAIHAGFTSVMIDASHHPFEENVATTAKVVELAHFHGVSVEAELGTVGGQEDDVIAEGVIYADPKECQELVERTGIDCLAPALGSVHGPYKGEPNLGFKEMEEIGKSTGLPLVLHGGTGIPTADIKKSISLGTAKINVNTENQISSAKAVRETLAAKPDEYDPRKYLGPAREAIKETVIGKMREFGSSNQA
notes: fructose 1,6-bisphosphate aldolase (FbaA), B. subtilis; gene amplified from B. subtilis 168 chromosomal DNA; source: B. subtilis 1A751, overexpressed from a pMAR-derived plasmid; cytoplasmic fraction and culture supernatant, not purified
B7: general stress protein (YceD) (natural protein, B. subtilis 168, UniProt P80875 1-193, looked up)
chain: MTISLAKGQKVDLTKTNPGLSKVVVGLGWDTNKYDGGHDFDLDSSVFLLDAAGKCASPNDFIFYNQLEGGNGSVVHSGDNLTGAGEGDDENVKVNLSAVPANIDKISFVITIHDAEARSQNFGQVSNAFVRIVNEETNEELIRYDLAEDFSIETAIIAGELYRHNGEWKFSAIGSGYQGGLARIATDYGLQVG
notes: general stress protein YceD, B. subtilis; gene amplified from B. subtilis 168 chromosomal DNA; Seen as monomer and as dimer; source: B. subtilis 1A751, overexpressed from a pMAR-derived plasmid; cytoplasmic fraction and culture supernatant, not purified
B8: 1-pyrroline-5-carboxylate dehydrogenase (YcgN) (enzyme, B. subtilis 168, UniProt P94391 1-515, looked up)
chain: MTTPYKHEPFTNFQDQNNVEAFKKALATVSEYLGKDYPLVINGERVETEAKIVSINPADKEEVVGRVSKASQEHAEQAIQAAAKAFEEWRYTSPEERAAVLFRAAAKVRRRKHEFSALLVKEAGKPWNEADADTAEAIDFMEYYARQMIELAKGKPVNSREGEKNQYVYTPTGVTVVIPPWNFLFAIMAGTTVAPIVTGNTVVLKPASATPVIAAKFVEVLEESGLPKGVVNFVPGSGAEVGDYLVDHPKTSLITFTGSREVGTRIFERAAKVQPGQQHLKRVIAEMGGKDTVVVDEDADIELAAQSIFTSAFGFAGQKCSAGSRAVVHEKVYDQVLERVIEITESKVTAKPDSADVYMGPVIDQGSYDKIMSYIEIGKQEGRLVSGGTGDDSKGYFIKPTIFADLDPKARLMQEEIFGPVVAFCKVSDFDEALEVANNTEYGLTGAVITNNRKHIERAKQEFHVGNLYFNRNCTGAIVGYHPFGGFKMSGTDSKAGGPDYLALHMQAKTISEMF
notes: 1-pyrroline-5-carboxylate dehydrogenase (YcgN), B. subtilis; gene amplified from B. subtilis 168 chromosomal DNA; source: B. subtilis 1A751, overexpressed from a pMAR-derived plasmid; cytoplasmic fraction and culture supernatant, not purified
B9: pyruvate dehydrogenase PdhD (enzyme, B. subtilis 168, UniProt P21880 1-470, looked up)
chain: MVVGDFPIETDTLVIGAGPGGYVAAIRAAQLGQKVTVVEKATLGGVCLNVGCIPSKALINAGHRYENAKHSDDMGITAENVTVDFTKVQEWKASVVNKLTGGVAGLLKGNKVDVVKGEAYFVDSNSVRVMDENSAQTYTFKNAIIATGSRPIELPNFKYSERVLNSTGALALKEIPKKLVVIGGGYIGTELGTAYANFGTELVILEGGDEILPGFEKQMSSLVTRRLKKKGNVEIHTNAMAKGVEERPDGVTVTFEVKGEEKTVDADYVLITVGRRPNTDELGLEQVGIEMTDRGIVKTDKQCRTNVPNIYAIGDIIEGPPLAHKASYEGKIAAEAIAGEPAEIDYLGIPAVVFSEPELASVGYTEAQAKEEGLDIVAAKFPFAANGRALSLNETDGFMKLITRKEDGLVIGAQIAGASASDMISELSLAIEGGMTAEDIAMTIHAHPTLGEITMEAAEVAIGSPIHIVK
notes: pyruvate dehydrogenase PdhD, B. subtilis; gene amplified from B. subtilis 168 chromosomal DNA; source: B. subtilis 1A751, overexpressed from a pMAR-derived plasmid; cytoplasmic fraction and culture supernatant, not purified
B10: superoxide dismutase (SodA) (enzyme, B. subtilis 168, UniProt P54375 1-202, looked up)
chain: MAYELPELPYAYDALEPHIDKETMTIHHTKHHNTYVTNLNKAVEGNTALANKSVEELVADLDSVPENIRTAVRNNGGGHANHKLFWTLLSPNGGGEPTGALAEEINSVFGSFDKFKEQFAAAAAGRFGSGWAWLVVNNGKLEITSTPNQDSPLSEGKTPILGLDVWEHAYYLNYQNRRPDYISAFWNVVNWDEVARLYSEAK
notes: superoxide dismutase (SodA), B. subtilis; gene amplified from B. subtilis 168 chromosomal DNA; source: B. subtilis 1A751, overexpressed from a pMAR-derived plasmid; cytoplasmic fraction and culture supernatant, not purified

Target: the molecule itself
Test: native gel or EMSA; blue native PAGE (BN-PAGE) of the soluble cytoplasmic fraction and the culture supernatant of B. subtilis after 24 h of cultivation; non-reducing sample buffer, Coomassie blue; mass estimated within ±15%

In order of falling “stoichiometry N” value:
1. B4  7
2. B1  5
3. B6  5
4. B3  4
5. B8  4
6. B2  3
7. B5  2
8. B7  2
9. B9  2
10. B10  2
